Test results as given in article PMC6450660.

Target: PI3KC3 complex II (PI3KC3-C2): VPS34, VPS15, BECN1, UVRAG (human) (UniProt Q8NEB9)
Sequence (Q8NEB9 whole entry, chain 1 of 4): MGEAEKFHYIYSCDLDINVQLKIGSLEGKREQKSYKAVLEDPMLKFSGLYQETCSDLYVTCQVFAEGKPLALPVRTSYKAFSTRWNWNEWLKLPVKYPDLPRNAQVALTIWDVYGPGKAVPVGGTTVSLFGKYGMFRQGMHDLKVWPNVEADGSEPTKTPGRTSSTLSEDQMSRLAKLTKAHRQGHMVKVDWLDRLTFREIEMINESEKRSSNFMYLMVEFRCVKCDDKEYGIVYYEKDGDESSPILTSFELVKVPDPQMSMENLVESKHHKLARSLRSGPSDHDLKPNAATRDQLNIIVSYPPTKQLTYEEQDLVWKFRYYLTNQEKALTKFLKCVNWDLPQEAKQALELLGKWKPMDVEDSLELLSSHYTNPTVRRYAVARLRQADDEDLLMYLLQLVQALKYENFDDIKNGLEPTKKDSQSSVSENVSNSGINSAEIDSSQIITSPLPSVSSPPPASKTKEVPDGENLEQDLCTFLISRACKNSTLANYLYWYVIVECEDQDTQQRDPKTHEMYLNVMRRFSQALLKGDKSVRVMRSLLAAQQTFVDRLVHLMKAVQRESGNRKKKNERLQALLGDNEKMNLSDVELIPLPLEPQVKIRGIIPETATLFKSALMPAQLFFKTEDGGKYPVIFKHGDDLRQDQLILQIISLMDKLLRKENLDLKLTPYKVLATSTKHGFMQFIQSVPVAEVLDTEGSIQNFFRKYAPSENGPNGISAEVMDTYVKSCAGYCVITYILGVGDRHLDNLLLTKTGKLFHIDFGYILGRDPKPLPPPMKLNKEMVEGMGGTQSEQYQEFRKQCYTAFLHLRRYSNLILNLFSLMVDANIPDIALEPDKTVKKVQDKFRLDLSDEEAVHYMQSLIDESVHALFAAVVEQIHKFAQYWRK
Sequence (Q99570 whole entry, chain 2 of 4, further chain): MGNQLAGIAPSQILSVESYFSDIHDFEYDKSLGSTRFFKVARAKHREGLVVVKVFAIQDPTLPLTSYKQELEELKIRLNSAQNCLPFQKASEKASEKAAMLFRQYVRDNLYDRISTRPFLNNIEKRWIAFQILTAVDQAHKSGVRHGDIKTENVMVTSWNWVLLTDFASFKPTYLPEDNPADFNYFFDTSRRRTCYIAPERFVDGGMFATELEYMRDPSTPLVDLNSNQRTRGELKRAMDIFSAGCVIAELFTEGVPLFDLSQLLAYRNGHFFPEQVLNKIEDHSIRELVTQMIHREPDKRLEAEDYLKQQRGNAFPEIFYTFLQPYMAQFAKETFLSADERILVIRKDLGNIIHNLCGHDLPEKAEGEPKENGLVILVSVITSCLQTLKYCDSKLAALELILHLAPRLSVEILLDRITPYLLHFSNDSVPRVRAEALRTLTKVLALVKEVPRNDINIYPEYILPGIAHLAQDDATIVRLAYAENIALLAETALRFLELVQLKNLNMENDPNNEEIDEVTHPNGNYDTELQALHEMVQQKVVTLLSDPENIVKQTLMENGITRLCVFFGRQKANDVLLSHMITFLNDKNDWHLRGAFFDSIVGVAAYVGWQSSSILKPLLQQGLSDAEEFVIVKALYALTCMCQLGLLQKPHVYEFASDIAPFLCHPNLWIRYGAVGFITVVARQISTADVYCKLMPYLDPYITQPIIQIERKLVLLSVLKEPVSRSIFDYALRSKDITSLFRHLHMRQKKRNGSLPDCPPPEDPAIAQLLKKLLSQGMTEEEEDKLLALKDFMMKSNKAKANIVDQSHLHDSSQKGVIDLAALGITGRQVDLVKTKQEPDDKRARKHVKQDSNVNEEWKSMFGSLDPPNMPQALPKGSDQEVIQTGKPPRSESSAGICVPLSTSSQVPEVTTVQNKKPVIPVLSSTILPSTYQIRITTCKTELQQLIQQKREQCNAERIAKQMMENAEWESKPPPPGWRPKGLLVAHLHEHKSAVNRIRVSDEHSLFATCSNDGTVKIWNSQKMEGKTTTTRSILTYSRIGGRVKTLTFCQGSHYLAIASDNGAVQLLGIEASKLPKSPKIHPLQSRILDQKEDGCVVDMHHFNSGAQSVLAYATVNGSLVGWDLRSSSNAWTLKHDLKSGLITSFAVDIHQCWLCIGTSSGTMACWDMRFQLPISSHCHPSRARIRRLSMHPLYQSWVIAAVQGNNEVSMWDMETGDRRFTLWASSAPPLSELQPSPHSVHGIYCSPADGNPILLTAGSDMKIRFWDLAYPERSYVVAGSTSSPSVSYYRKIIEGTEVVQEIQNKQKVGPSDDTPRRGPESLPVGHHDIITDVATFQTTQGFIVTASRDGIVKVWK
Sequence (Q14457 whole entry, chain 3 of 4, further chain): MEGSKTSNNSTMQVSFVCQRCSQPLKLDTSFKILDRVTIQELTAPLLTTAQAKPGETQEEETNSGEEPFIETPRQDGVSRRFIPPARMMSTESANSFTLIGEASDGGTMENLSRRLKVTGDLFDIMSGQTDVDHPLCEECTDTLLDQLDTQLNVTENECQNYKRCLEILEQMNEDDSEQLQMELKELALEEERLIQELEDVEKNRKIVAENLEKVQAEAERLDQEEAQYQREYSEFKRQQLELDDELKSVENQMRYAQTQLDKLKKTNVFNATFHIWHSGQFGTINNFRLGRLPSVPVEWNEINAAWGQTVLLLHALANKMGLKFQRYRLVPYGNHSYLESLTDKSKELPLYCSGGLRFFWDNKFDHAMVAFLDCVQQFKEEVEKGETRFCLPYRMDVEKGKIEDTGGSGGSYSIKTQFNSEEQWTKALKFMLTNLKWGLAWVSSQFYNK
Sequence (Q9P2Y5 whole entry, chain 4 of 4, further chain): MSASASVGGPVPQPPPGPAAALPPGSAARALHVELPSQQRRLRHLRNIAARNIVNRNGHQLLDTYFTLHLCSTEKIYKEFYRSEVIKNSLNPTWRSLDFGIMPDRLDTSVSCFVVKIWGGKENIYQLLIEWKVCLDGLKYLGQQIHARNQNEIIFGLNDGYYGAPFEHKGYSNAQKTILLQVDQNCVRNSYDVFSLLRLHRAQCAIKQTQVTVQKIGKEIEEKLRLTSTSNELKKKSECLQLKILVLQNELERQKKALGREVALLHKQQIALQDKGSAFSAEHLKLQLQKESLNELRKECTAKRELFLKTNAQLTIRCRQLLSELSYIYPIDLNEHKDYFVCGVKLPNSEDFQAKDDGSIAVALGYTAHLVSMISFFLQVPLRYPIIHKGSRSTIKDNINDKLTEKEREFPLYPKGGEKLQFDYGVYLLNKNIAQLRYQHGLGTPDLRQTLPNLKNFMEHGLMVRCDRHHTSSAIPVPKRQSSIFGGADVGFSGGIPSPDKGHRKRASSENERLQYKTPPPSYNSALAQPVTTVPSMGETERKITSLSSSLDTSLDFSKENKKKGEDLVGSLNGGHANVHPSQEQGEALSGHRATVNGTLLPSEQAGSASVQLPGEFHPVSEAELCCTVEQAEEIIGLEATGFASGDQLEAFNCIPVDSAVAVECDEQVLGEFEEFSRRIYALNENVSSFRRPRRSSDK

Substance	PI3KC3-C2 lipid kinase activity on SUVs (ADP-Glo), complexes at 12.5 nM [fold]
MBP tagged Rubicon PIKBD (PI3KC3-C2 binding domain) (from UniProt Q92622 1-972) (domain or fragment)	2
MBP tagged Rubicon MR (middle region) (from UniProt Q92622 1-972) (domain or fragment)	2
